In patent US20090074722A1, “Products and methods for treating PTP lar diseases” (MAX-PLANCK-GESELLSCHAFT ZUR, priority 1999, published 2009):

T1: tyrosine phosphorylated β-catenin (Homo sapiens, UniProt P35222)
T1 construct: expressed in transfected cells; host or cells: human 293 embryonic kidney cells, transient; CMV-promoter vector; immunoprecipitated with anti-β-catenin antibody
T1 sequence (P35222 1-781): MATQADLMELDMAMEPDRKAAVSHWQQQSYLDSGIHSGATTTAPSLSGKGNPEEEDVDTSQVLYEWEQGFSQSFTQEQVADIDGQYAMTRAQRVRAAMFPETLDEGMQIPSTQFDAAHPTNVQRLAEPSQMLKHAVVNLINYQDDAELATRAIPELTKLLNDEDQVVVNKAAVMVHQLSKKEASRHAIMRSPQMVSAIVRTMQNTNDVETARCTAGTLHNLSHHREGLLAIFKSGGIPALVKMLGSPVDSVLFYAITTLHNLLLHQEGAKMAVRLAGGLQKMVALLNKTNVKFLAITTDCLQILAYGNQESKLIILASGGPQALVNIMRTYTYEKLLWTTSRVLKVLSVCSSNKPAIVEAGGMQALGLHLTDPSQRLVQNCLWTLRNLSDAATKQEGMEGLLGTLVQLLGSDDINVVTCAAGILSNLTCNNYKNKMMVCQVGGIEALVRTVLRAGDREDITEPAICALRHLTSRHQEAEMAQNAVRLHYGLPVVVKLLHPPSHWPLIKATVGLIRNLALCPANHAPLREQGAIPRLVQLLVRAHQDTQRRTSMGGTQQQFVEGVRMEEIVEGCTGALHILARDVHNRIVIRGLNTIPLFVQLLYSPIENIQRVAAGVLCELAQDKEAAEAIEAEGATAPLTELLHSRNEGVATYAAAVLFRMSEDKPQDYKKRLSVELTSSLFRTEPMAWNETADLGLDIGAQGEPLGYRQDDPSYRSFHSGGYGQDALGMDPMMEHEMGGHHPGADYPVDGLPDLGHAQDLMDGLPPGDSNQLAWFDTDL


Biological target: T1, tyrosine phosphorylated β-catenin
Assay: In vitro dephosphorylation assay
Format: biochemical
Conditions: 200 ng GST fusion protein, 25° C.; within the first five minutes; anti-phosphotyrosine Western blot
Method: After 24 h of serum starvation, the cells were stimulated with pervanadate before lysis. β-catenin was subsequently immunoprecipitated with an anti-β-catenin antibody, and precipitates were incubated for the indicated time intervals with GST-PTP LAR cytoplasmic fusion protein (left), GST-PTP LAR PTP D1 C1522S-mutant (middle) or GST-PTP LAR PTP D2 C1813S-mutant (right). Reactions were terminated after the indicated periods of time, and proteins were separated by SDS-PAGE. Tyrosine phosphorylation levels of […] were analyzed by Western blotting with an anti-phosphotyrosine antibody (top). […] Arrows indicate the proteins of interest.
In Vitro Dephosphorylation Assay—β-catenin was transiently overexpressed in human 293 embryonic kidney cells. Cells were serum-starved, treated with pervanadate ([…]/0.1 mM Na-orthovanadate) for 10 minutes and lysed. Immunoprecipitations were performed as described above except that HNTG without pyrophosphate, ammonium-molybdate, and Na-orthovanadate was used. PTP activity towards tyrosine phosphorylated β-catenin was assayed in 200 μL reactions at 25° C. containing 25 mM HEPES, pH 7.5, 5 mM EDTA, 10 mM DTT, and 1 mg/mL BSA with 200 ng of GST-hPTP LAR cytoplasmic, GST-hPTP LAR D1 C1522S, or GST-hPTP LAR D2 C1813S added. Reactions were stopped by washing with HNTG and subsequently separated by SDS-PAGE. The tyrosine phosphorylation status was analyzed by Western blotting using anti-phosphotyrosine antibody.
The association of β-catenin and plakoglobin with PTP LAR prompted the investigation of whether these proteins could represent actual substrates for PTP LAR. […] After different time intervals, the reactions were terminated and analyzed with an anti-phosphotyrosine specific antibody.

Row | Molecule | tyrosine phosphorylation signal of β-catenin
1 | GST-PTP LAR PTP D2 C1813S: GST fusion of PTP LAR cytoplasmic domain with inactivated PTP domain 2 (protein) KRKRTHSPSSKDEQSIGLKDSLLAHSSDPVEMRRLNYQTPGMRDHPPIPITDLADNIERLKANDGLKFSQEYESIDPGQQFTWENSNLEVNKPKNRYANVIAYDHSRVILTSIDGVPGSDYINANYIDGYRKQNAYIATQGPLPETMGDFWRMVWEQRTATVVMMTRLEEKSRVKCDQYWPARGTETCGLIQVTLLDTVELATYTVRTFALHKSGSSEKRELRQFQFMAWPDHGVPEYPTPILAFLRRVKACNPLDAGPMVVHCSAGVGRTGCFIVIDAMLERMKHEKTVDIYGHVTCMRSQRNYMVQTEDQYVFIHEALLEAATCGHTEVPARNLYAHIQKLGQVPPGESVTAMELEFKLLASSKAHTSRFISANLPCNKFKNRLVNIMPYELTRVCLQPIRGVEGSDYINASFLDGYRQQKAYIATQGPLAESTEDFWRMLWEHNSTIIVMLTKLREMGREKCHQYWPAERSARYQYFVVDPMAEYNMPQYILREFKVTDARDGQSRTIRQFQFTDWPEQGVPKTGEGFIDFIGQVHKTKEQFGQDGPITVHCSAGVGRTGVFITLSIVLERMRYEGVVDMFQTVKTLRTQRPAMVQTEDQYQLCYRAALEYLGSFDHYAT | significant reduction in the tyrosine phosphorylation signal
2 | GST-PTP LAR PTP D1 C1522S: GST fusion of PTP LAR cytoplasmic domain with catalytically inactivated PTP domain 1 (protein) KRKRTHSPSSKDEQSIGLKDSLLAHSSDPVEMRRLNYQTPGMRDHPPIPITDLADNIERLKANDGLKFSQEYESIDPGQQFTWENSNLEVNKPKNRYANVIAYDHSRVILTSIDGVPGSDYINANYIDGYRKQNAYIATQGPLPETMGDFWRMVWEQRTATVVMMTRLEEKSRVKCDQYWPARGTETCGLIQVTLLDTVELATYTVRTFALHKSGSSEKRELRQFQFMAWPDHGVPEYPTPILAFLRRVKACNPLDAGPMVVHCSAGVGRTGCFIVIDAMLERMKHEKTVDIYGHVTCMRSQRNYMVQTEDQYVFIHEALLEAATCGHTEVPARNLYAHIQKLGQVPPGESVTAMELEFKLLASSKAHTSRFISANLPCNKFKNRLVNIMPYELTRVCLQPIRGVEGSDYINASFLDGYRQQKAYIATQGPLAESTEDFWRMLWEHNSTIIVMLTKLREMGREKCHQYWPAERSARYQYFVVDPMAEYNMPQYILREFKVTDARDGQSRTIRQFQFTDWPEQGVPKTGEGFIDFIGQVHKTKEQFGQDGPITVHCSAGVGRTGVFITLSIVLERMRYEGVVDMFQTVKTLRTQRPAMVQTEDQYQLCYRAALEYLGSFDHYAT | No change in phosphorylation levels
